Source: publication PMC3264566, “Structure-Function Studies of DNA Binding Domain of Response Regulator KdpE Reveals Equal Affinity Interactions at DNA Half-Sites”
Where a chain is given by its changes, count along the chain named.

How the values were obtained:
Experiment in all cases: EMSA; up to 1:8 DNA:protein; AUC: 50 mM HEPES pH 7.4, 150 mM KCl, 1 mM EDTA, 20 C, DNA 0.5 uM in SV; EMSA: 10 mM Tris pH 8.0, 50 mM NaCl, 5% glycerol, 0.1% Triton X-100, 10 mM DTT, 1 mM EDT
Conditions in all cases: protein: recombinant; chain copies: 2; blunt
[1] = target: T1, KdpE DBD R200A (Escherichia coli str. K-12 substr. …, UniProt P21866 124-225, R200A)
T1 sequence: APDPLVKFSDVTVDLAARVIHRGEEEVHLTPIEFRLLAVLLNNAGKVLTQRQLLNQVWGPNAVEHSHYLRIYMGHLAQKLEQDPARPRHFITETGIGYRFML

[2] = target: T2, KdpE DBD T215A (Escherichia coli str. K-12 substr. …, UniProt P21866 124-225, T215A)
T2 sequence: T1 sequence with A77R, T92A

[3] = target: T3, KdpE DBD R193A (Escherichia coli str. K-12 substr. …, UniProt P21866 124-225, R193A)
T3 sequence: T1 sequence with R70A, A77R

Measured: binding result

B1: kdpFABCBS 30 bp (dsDNA)
DNA 1: CATTTTTATACTTTTTTTACACCCCGCCCG
DNA 2: CGGGCGGGGTGTAAAAAAAGTATAAAAATG
no binding: [1] | [2] | [3]
